# B1: equistatin: cysteine/aspartic protease inhibitor from sea anemone Actinia equina with three type I repeated thyroglobulin domains; purified or recombinant from E. coli (protein)
# chain: SLTKCQQLQASANSGLIGTYVPQCKETGEFEEKQCWGSTGYCWCVDEDGKEILGTKIRGSPDCSRRKAALTLCQMMQAIIVNVPGWCGPPSCKADGSFDEVQCCASNGECYCVDKKGKELEGTRQQGRPTCERHLSECEEARIKAHSNSLRVEMFVPECLEDGSYNPVQCWPSTGYCWCVDEGGVKVPGSDVRFKRPTC
# modifications: left off: large carriers; small tags and cut ends
# notes: purified or recombinant from E. coli
# Tests used:
# [1] = target: T1, papain (Carica papaya, UniProt P00784); test: Kinetic analysis of papain inactivation (continuous rate assay); type: biochemical
# T1 sequence (P00784 134-345): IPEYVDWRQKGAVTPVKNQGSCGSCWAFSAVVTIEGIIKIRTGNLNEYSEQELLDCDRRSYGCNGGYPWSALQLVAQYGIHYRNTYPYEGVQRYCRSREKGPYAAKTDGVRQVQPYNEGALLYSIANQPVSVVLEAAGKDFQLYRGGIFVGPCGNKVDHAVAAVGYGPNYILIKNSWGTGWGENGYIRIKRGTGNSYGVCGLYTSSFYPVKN
# [2] = test system: Colorado potato beetle larval gut extracts (potato protease inhibitor-insensitive cysteine proteases); test: General proteolytic activity of Colorado potato beetle larval gut extracts, azocasein; type: biochemical, Leptinotarsa decemlineata
# Excerpt: (§1) Guts of final instar Colorado potato beetle larvae reared on methyl jasmonate induced plants were isolated and extracted essentially as described (Bolter and Jongsma, J. Insect Physiol. 41: 1071-1078). In these gut extracts the proteases that are sensitive to the protease inhibitors of potato are already complexed. The residual protease activity is composed of potato protease-inhibitor-insensitive proteases which were induced in response to the methyl jasmonate induced potato inhibitors. These proteases are the proteases that render the beetle larvae insensitive to protease inhibitor defense of the potato plant. Wle tested a broad range of different cysteisie protease inhibitors for activity specifically against these induced potato protease inhibitor-insensitive cysteine protesses. Nearly all of these inhibitors were purified at the Jozef Stefan Institute in Slovenia. Testing their potential against Colorado potato beetle was done using both general protein substrates (azocasein, table 2) as well as specific synthetic substrates (L-Arg-pNA, table 3; pGlu-Phe-Leu-pNA, table 4; Z-Phe-Arg-pNA, table 5; Z-Arg-Arg-pNA, table 6). In specific cases inhibitors were tested at two concentrations, eauimolar and in excess to the protease, in order to obtain an indication of the tightness of the complex. […] Importantly, this class of inhibitors was capable of inhibiting nearly all general cysteine protease activity. The equistatin peptide molecule and a functional derivative thereof were not very active against the aminopeptidase-like cysteine protease activity. […] The best combination of inhibitors for full toxicity against the Colorado potato beetle would therefore be a combination of equistatin or p41 invariant chain fragment and stefin-like inhibitors.
# [3] = test system: tri-peptidil-peptidase and endoprotease activity of Colorado potato beetle larval gut extracts; test: Tri-peptidil-peptidase and endoprotease activity of Colorado potato beetle gut extract, pGlu-Phe-Leu-pNA; type: biochemical, Leptinotarsa decemlineata
# Excerpt: as §1
# [4] = test system: endoprotease activity of Colorado potato beetle larval gut extracts; test: Broad spectrum endoprotease activity of Colorado potato beetle gut extract, Z-Phe-Arg-pNA; type: biochemical, Leptinotarsa decemlineata
# Excerpt: as §1
# [5] = test system: thrips protease activity; test: Protease activity of adult western flower thrips extract, FITC-hemoglobin; type: biochemical, Frankliniella occidentalis; set-up: inhibition of protease activity: concentration or dose not given beside the values
# Procedure: (§2) Adult western flower thrips (Frankliniella occidentalis) and leafmirer flies (Liriomyza trifolii) adult were harvested from a culture maintained on chrysanthemum plants and complete thrips and flies were homogenized in extraction on buffer (200 mM β-alanine-HCl, pH 3.5) in a volume of 5 times the weight of the insects. The buffer pH was at the previously determined pH optimum of protease activity towards hemoglobin. Final instar Colorado potato beetle larvae maintained on potato plants as described in example 5 were checked for gut aspartic protease activity by preparing a total gut extract in pH 3 buffer which is optimal for Colorado potato beetle aspartic proteases (200 mM glycine, pH 3). Guts were homogenized in 100 μl buffer per gut. Third instar western corn rootworm larvae maintained on corn roots were used to remove the guts. Ten guts were homogenized in 100 μl water and spinned twice to remove insoluble material. Two types of buffers were used in the enzymatic assay. One with a pH presumably favoring cysteine proteases (50 mM MES, pH 6.5; 0.6 mg/ml L-cysteine) and one for detecting aspartic proteases (200 mM glycine, pH 3). Supernatants were stored at −20° C.
# (§3) 2 μl gut extract was combined with 2 μl inhibitor (2 mM pepstatin in methanol, 4 mM E64 in water, 2 mg/ml recombinant equistatin in water. The concentration of the other proteinaceous inhibitors was not known exactly). Appropriate buffers were added to a final volume of 100 μl. After 15′ preincubation 20 μl substrate (5 mg/ml FITC-hemoglobin) was added and incubated for 30-45 min at 37 C.
# (§4) Reaction was stopped by the addition of 100 μl 10% TCA. Tubes were centrifuged and 100 μl supernatant mixed with 100 μl 10 N NaOH was measured on a fluorimeter for the extent of hemoglobin hydrolysis. Measurements were done in duplicate on one (thrips, leafminer and western corn rootworm), or three (Colorado potato beetle) different gut extracts and varied by a maximum of +/−5%.
# [6] = test system: Colorado potato beetle proteases; test: Protease activity of Colorado potato beetle larval gut extract at pH 3, FITC-hemoglobin; type: biochemical, Leptinotarsa decemlineata; set-up: inhibition of total protease activity / increase of inhibition by addition of equistatin to E64 / increase of inhibition by addition of equistatin to pepstatin: concentration or dose not given beside the values
# Procedure: as §2, §3, §4
# [7] = test system: Colorado potato beetle larvae; test: Toxicity of equistatin painted on potato leaves towards Colorado potato beetle larvae; type: in vivo, Leptinotarsa decemlineata
# Procedure: Potato tubers of cultivar Surprise (Solanum tuberosum) were sprouted. Sprouted tubers were planted in 1 l pots and grown for 3-4 weeks at a 22/18° C., 16/8 hr day night rhythm. Plants 10-15 cm high were placed in glass jars together with a paper wick on which 2 ul methyl jasmonate was pipeted. Jars were sealed immediately with parafilm and placed in a climate chamber of 30° C. with continuous light. Control plants were placed in a chamber of 25° C. with a 16-8 hr day night rhythm. After one day at 30° C. plants were taken from the jars and placed in the same chamber as the control. Plants were used on day 3. Freshly treated plants were used for each subsequent day of feeding. […] The top meristems were removed from the plants and painted on both sides with a 175 μM solution of recombinant equistatin in 0.3% agar obtained by mixing 1:1 a stock solution of 350 μM equistatin with 0.6% water agar. Controls were painted with 0.3% water agar. The agar solution was applied at a concentration of 30 μl/cm2.
# The final concentration on the leaf was estimated to be 70 μM which is equivalent to 1.4 mg/g leaf. Painted leaves were placed in a tube containing 0.4% agar and out on top of a filterpaper inside a petridish. 21-26 newly hatched Colorado potato beetle larvae were placed on the leaves and the petridish was put in an incubator set at 28° C. Everyday fresh painted leaves replaced the old ones.
# [8] = recombinant equistatin on MeJa treated plants
# [9] = recombinant equistatin on control plants
# [10] = recombinant equistatin on methyl jasmonate (MeJa) treated plants
molecule,measurement,setting,value
B1,Ki,[1]; Ki calculated from the ratio kd/ka,0.57 ± 0.04 nM
same,10^4 × kd,"[1]; continuous rate assay, printed value is 10^4 × kd",65 ± 1.5 s^−1
same,10^−6 × ka,"[1]; continuous rate assay, printed value is 10^−6 × ka",12 ± 0.6 M^−1 s^−1
same,Residual activity in excess of inhibitor,[2],10%
same,"% of residual activity, equimolar",[3]; equimolar,10%
same,"% of residual activity, excess inhibitor",[3]; excess inhibitor,−5%
same,"% of residual activity, equimolar",[4]; equimolar,30%
same,"% of residual activity, excess inhibitor",[4]; excess inhibitor,20%
same,residual protease activity,"[5]; thrips pH 3.5, equistatin purified from sea anemone",5%
same,inhibition of protease activity,"[5]; thrips, pH 3.5",95%
same,increase of inhibition by addition of equistatin to E64,"[6]; Colorado potato beetle, pH3",42%
same,increase of inhibition by addition of equistatin to pepstatin,"[6]; Colorado potato beetle, pH3",12%
same,inhibition of both aspartic and cysteine protease activity,"[6]; Colorado potato beetle, pH3",more than 50%
same,inhibition of total protease activity,"[6]; Colorado potato beetle, pH3",62%
same,residual protease activity,"[6]; colorado potato beetle pH 3, recombinant equistatin",36%
same,"percent mortality, day 1",[7]; [8],0%
same,"percent mortality, day 2",[7]; [8],23%
same,"percent mortality, day 3",[7]; [8],77%
same,"percent mortality, day 4",[7]; [8],92%
same,"percent mortality, day 1",[7]; [9],0%
same,"percent mortality, day 2",[7]; [9],10%
same,"Larval weight, day 3",[7]; [9],0.5 mg/larvae
same,"percent mortality, day 3",[7]; [9],52%
same,"Larval weight, day 4",[7]; [9],0.7 mg/larvae
same,"percent mortality, day 4",[7]; [9],76%
same,"Larval weight, day 3",[7]; [10],n.g.
same,"Larval weight, day 4",[7]; [10],n.g.
